Among the data in patent US11932673 are TRF signal and ELISA signal values, retold here.

B1: KB_A12_B-gal_F02 (scFv, V domains shown)
VH: EVQLVESGGGLVRPGGSLRLSCAASGFTFSSYAMSWVRQAPGKGLEWVSAISGSGGSTYYADSVKGRFTISRDNTKNSLYLQMTSLRADDTAFYYCVKDFGPGYGTGWFDYWGPGTLVTVSS
VL: AVNWYQQLPGKAPKLLIYAAGRCRTTSTIRRRCKQDSDCLAGCVCGPNGFCGANSGVSDRFSAAKSGTSASLAINGLRSEDEADYYCAAWDDSLNGYVFGTGTKLTVLG
B2: KB_A12_B-gal_G05 (scFv, V domains shown)
VH: EVQLVESGGGLVRPGGSLRLSCAASGFTFSSYAMSWVRQAPGKGLEWVSAISGSGGSTYYADSVKGRFTISRDNTKNSLYLQMTSLRADDTAFYYCVKDFGPGYGTGWFDYWGPGTLVTVSS
VL: AVNWYQQLPGKAPKLLIYAAGRCLDTVNLRRRCKQDSDCLAGCVCGPNGFCGANSGVSDRFSAAKSGTSASLAINGLRSEDEADYYCAAWDDSLNGYVFGTGTKLTVLG
B3: KB_A12_B-gal_F11 (scFv, V domains shown)
VH: EVQLVESGGGLVRPGGSLRLSCAASGFTFSSYAMSWVRQAPGKGLEWVSAISGSGGSTYYADSVKGRFTISRDNTKNSLYLQMTSLRADDTAFYYCVKDFGPGYGTGWFDYWGPGTLVTVSS
VL: AVNWYQQLPGKAPKLLIYAAGRCHETAQIRRRCKQDSDCLAGCVCGPNGFCGANSGVSDRFSAAKSGTSASLAINGLRSEDEADYYCAAWDDSLNGYVFGTGTKLTVLG
B4: KB_A12_B-gal_F09 (scFv, V domains shown)
VH: EVQLVESGGGLVRPGGSLRLSCAASGFTFSSYAMSWVRQAPGKGLEWVSAISGSGGSTYYADSVKGRFTISRDNTKNSLYLQMTSLRADDTAFYYCVKDFGPGYGTGWFDYWGPGTLVTVSS
VL: AVNWYQQLPGKAPKLLIYAAGRCIATSHIRRHCKQDSDCLAGCVCGPNGFCGANSGVSDRFSAAKSGTSASLAINGLRSEDEADYYCAAWDDSLNGYVFGTGTKLTVLG
B5: KB_A12_B-gal_H02 (scFv, V domains shown)
VH: EVQLVESGGGLVRPGGSLRLSCAASGFTFSSYAMSWVRQAPGKGLEWVSAISGSGGSTYYADSVKGRFTISRDNTKNSLYLQMTSLRADDTAFYYCVKDFGPGYGTGWFDYWGPGTLVTVSS
VL: AVNWYQQLPGKAPKLLIYAAGRCEQTSVIRRHCKQDSDCLAGCVCGPNGFCGANSGVSDRFSAAKSGTSASLAINGLRSEDEADYYCAAWDDSLNGYVFGTGTKLTVLG
B6: KB_A12_B-gal_E05 (scFv, V domains shown)
VH: EVQLVESGGGLVRPGGSLRLSCAASGFTFSSYAMSWVRQAPGKGLEWVSAISGSGGSTYYADSVKGRFTISRDNTKNSLYLQMTSLRADDTAFYYCVKDFGPGYGTGWFDYWGPGTLVTVSS
VL: AVNWYQQLPGKAPKLLIYAAGRCRETSSLRRPCKQDSDCLAGCVCGPNGFCGANSGVSDRFSAAKSGTSASLAINGLRSEDEADYYCAAWDDSLNGYVFGTGTKLTVLG
B7: KB_A12_B-gal_E04 (scFv, V domains shown)
VH: EVQLVESGGGLVRPGGSLRLSCAASGFTFSSYAMSWVRQAPGKGLEWVSAISGSGGSTYYADSVKGRFTISRDNTKNSLYLQMTSLRADDTAFYYCVKDFGPGYGTGWFDYWGPGTLVTVSS
VL: AVNWYQQLPGKAPKLLIYAAGRCLATTSIRRPCKQDSDCLAGCVCGPNGFCGANSGVSDRFSAAKSGTSASLAINGLRSEDEADYYCAAWDDSLNGYVFGTGTKLTVLG
B8: KB_A12_B-gal_F03 (scFv, V domains shown)
VH: EVQLVESGGGLVRPGGSLRLSCAASGFTFSSYAMSWVRQAPGKGLEWVSAISGSGGSTYYADSVKGRFTISRDNTKNSLYLQMTSLRADDTAFYYCVKDFGPGYGTGWFDYWGPGTLVTVSS
VL: AVNWYQQLPGKAPKLLIYAAGRCLATTSIRRHCKQDSDCLAGCVCGPNGFCGANSGVSDRFSAAKSGTSASLAINGLRSEDEADYYCAAWDDSLNGYVFGTGTKLTVLG
B9: KB_A12_B-gal_F07 (scFv, V domains shown)
VH: EVQLVESGGGLVRPGGSLRLSCAASGFTFSSYAMSWVRQAPGKGLEWVSAISGSGGSTYYADSVKGRFTISRDNTKNSLYLQMTSLRADDTAFYYCVKDFGPGYGTGWFDYWGPGTLVTVSS
VL: AVNWYQQLPGKAPKLLIYAAGRCRTTANVRRHCKQDSDCLAGCVCGPNGFCGANSGVSDRFSAAKSGTSASLAINGLRSEDEADYYCAAWDDSLNGYVFGTGTKLTVLG
B10: KB_A12_B-gal_H03 (scFv, V domains shown)
VH: EVQLVESGGGLVRPGGSLRLSCAASGFTFSSYAMSWVRQAPGKGLEWVSAISGSGGSTYYADSVKGRFTISRDNTKNSLYLQMTSLRADDTAFYYCVKDFGPGYGTGWFDYWGPGTLVTVSS
VL: AVNWYQQLPGKAPKLLIYAAGRCNQTMSIRRPCKQDSDCLAGCVCGPNGFCGANSGVSDRFSAAKSGTSASLAINGLRSEDEADYYCAAWDDSLNGYVFGTGTKLTVLG
B11: KB_A12_B-gal_H07 (scFv, V domains shown)
VH: EVQLVESGGGLVRPGGSLRLSCAASGFTFSSYAMSWVRQAPGKGLEWVSAISGSGGSTYYADSVKGRFTISRDNTKNSLYLQMTSLRADDTAFYYCVKDFGPGYGTGWFDYWGPGTLVTVSS
VL: AVNWYQQLPGKAPKLLIYAAGRCTQTALIRRRCKQDSDCLAGCVCGPNGFCGANSGVSDRFSAAKSGTSASLAINGLRSEDEADYYCAAWDDSLNGYVFGTGTKLTVLG
B12: F01 (KnotBody with EET 5-3 framing) (scFv, V domains shown)
VH: EVQLVESGGGLVRPGGSLRLSCAASGFTFSSYAMSWVRQAPGKGLEWVSAISGSGGSTYYADSVKGRFTISRDNTKNSLYLQMTSLRADDTAFYYCVKDFGPGYGTGWFDYWGPGTLVTVSS
VL: YLNWYQQKPGKAPKLLIDAAGECGPNGFCGSGSDGGVCPRINMRCKQDSDCLAGCGRDSGVPSRFSGSGSGTDFTLTISSLQPEDFATYYCQQSYSTPWTFGQGTKVEIKR
B13: G11 (KnotBody with EET 5-3 framing) (scFv, V domains shown)
VH: EVQLVESGGGLVRPGGSLRLSCAASGFTFSSYAMSWVRQAPGKGLEWVSAISGSGGSTYYADSVKGRFTISRDNTKNSLYLQMTSLRADDTAFYYCVKDFGPGYGTGWFDYWGPGTLVTVSS
VL: AVNWYQQLPGKAPKLLIYAAGGCGPNGFCGSGSDGGVCPRILMRCKQDSDCLAGCGQSSGVSDRFSGSKSGTSATLDITGLQTGDEADYYCGTWDNSLSVGVFGGGTKVTVLG
B14: E08 (KnotBody with EET 5-3 framing) (scFv, V domains shown)
VH: EVQLVESGGGLVRPGGSLRLSCAASGFTFSSYAMSWVRQAPGKGLEWVSAISGSGGSTYYADSVKGRFTISRDNTKNSLYLQMTSLRADDTAFYYCVKDFGPGYGTGWFDYWGPGTLVTVSS
VL: AVNWYQQLPGKAPKLLIYAAGGCGPNGFCGSGSDGGVCPRILMRCKQDSDCLAGCGIQSGIPERFSGSKSGTSASLAISGLRSEDEADYYCAAWDDNLSGYVFGTGTKLTVLG
B15: E03 (KnotBody with EET 5-3 framing) (scFv, V domains shown)
VH: EVQLVESGGGLVRPGGSLRLSCAASGFTFSSYAMSWVRQAPGKGLEWVSAISGSGGSTYYADSVKGRFTISRDNTKNSLYLQMTSLRADDTAFYYCVKDFGPGYGTGWFDYWGPGTLVTVSS
VL: AVNWYQQLPGKAPKLLIYAAGGCGPNGFCGSGSDGGVCPRILMRCKQDSDCLAGCGRNSGIPERFSGSKSGHTATLTISRVEAGDEADYYCQVWDSSSDHVLFGGGTKLTVLG
B16: F07 (KnotBody with EET 5-3 framing) (scFv, V domains shown)
VH: EVQLVESGGGLVRPGGSLRLSCAASGFTFSSYAMSWVRQAPGKGLEWVSAISGSGGSTYYADSVKGRFTISRDNTKNSLYLQMTSLRADDTAFYYCVKDFGPGYGTGWFDYWGPGTLVTVSS
VL: AVNWYQQLPGKAPKLLIYAAGGCGPNGFCGSGSDGGVCPRILMRCKQDSDCLAGCGGQSGVPDRFSGSKSGTSASLAISRLQSEDEADYYCAAWDDSLNAYVFGTGTKVTVLG
B17: F03 (KnotBody with EET 5-3 framing) (scFv, V domains shown)
VH: EVQLVESGGGLVRPGGSLRLSCAASGFTFSSYAMSWVRQAPGKGLEWVSAISGSGGSTYYADSVKGRFTISRDNTKNSLYLQMTSLRADDTAFYYCVKDFGPGYGTGWFDYWGPGTLVTVSS
VL: AVNWYQQLPGRAPKLLIYAAGGCGPNGFCGSGGDGGVCPRILMRCKQDSDCLAGCGAHSGIPERFSGSKSGTSASLAISGLRSEDEADYYCAAWDDSLNGWVFGGGTKVTVLG
B18: E09 (KnotBody with EET 5-3 framing) (scFv, V domains shown)
VH: EVQLVESGGGLVRPGGSLRLSCAASGFTFSSYAMSWVRQAPGKGLEWVSAISGSGGSTYYADSVKGRFTISRDNTKNSLYLQMTSLRADDTAFYYCVKDFGPGYGTGWFDYWGPGTLVTVSS
VL: AVNWYQQLPGKAPKLLIYAAGGCGPNGFCGSGSDGGVCPRILMRCKQDSDCLAGCGTQSGIPERFSGSKSGTSASLAISGLRSEDEADYYCAAWDDSLRAYVFGTGTQLTVLG
B19: C09 (KnotBody with EET 5-3 framing) (scFv, V domains shown)
VH: EVQLVESGGGLVRPGGSLRLSCAASGFTFSSYAMSWVRQAPGKGLEWVSAISGSGGSTYYADSVKGRFTISRDNTKNSLYLQMTSLRADDTAFYYCVKDFGPGYGTGWFDYWGPGTLVTVSS
VL: SEAPRQRVTITCGGKRCGPNGFCGSGSDGGVCPRILMRCKQDSDCLAGCTSNWYQQKPGQAPVLVVQDDSVRPSGIPERFSGSNSGNTATLTISRVEAGDGADYYCQVWDISSDLGVFGGGTKLTVLG
B20: E01 (KnotBody with EET 5-3 framing) (scFv, V domains shown)
VH: EVQLVESGGGLVRPGGSLRLSCAASGFTFSSYAMSWVRQAPGKGLEWVSAISGSGGSTYYADSVKGRFTISRDNTKNSLYLQMTSLRADDTAFYYCVKDFGPGYGTGWFDYWGPGTLVTVSS
VL: AVNWYQQLPGKAPKLLIYAAGGCGPNGFCGSGSDGGVCPRILMRCKQDSDCLAGCGIHSGVSDRFSDSKSGTSASLAISGLQSEDEADYYCAAWDDSLNGYVFGTGTKLTVLG
B21: E05 (KnotBody with EET 5-3 framing) (scFv, V domains shown)
VH: EVQLVESGGGLVRPGGSLRLSCAASGFTFSSYAMSWVRQAPGKGLEWVSAISGSGGSTYYADSVKGRFTISRDNTKNSLYLQMTSLRADDTAFYYCVKDFGPGYGTGWFDYWGPGTLVTVSS
VL: AVNWYQQLPGKAPKLLIYAAGGCGPNGFCGSGSDGGVCPRILMRCKQDSDCLAGCGAQSGIPERFSGSKSGTSASLAISGLQSEDEAHYYCAAWDDSLNGYVFGTGTKVTVLG

For the first experiment, the target named is β-galactosidase. The experiment is described as follows: monoclonal phage TRF.
β-galactosidase, sequence (P00722 2-1024): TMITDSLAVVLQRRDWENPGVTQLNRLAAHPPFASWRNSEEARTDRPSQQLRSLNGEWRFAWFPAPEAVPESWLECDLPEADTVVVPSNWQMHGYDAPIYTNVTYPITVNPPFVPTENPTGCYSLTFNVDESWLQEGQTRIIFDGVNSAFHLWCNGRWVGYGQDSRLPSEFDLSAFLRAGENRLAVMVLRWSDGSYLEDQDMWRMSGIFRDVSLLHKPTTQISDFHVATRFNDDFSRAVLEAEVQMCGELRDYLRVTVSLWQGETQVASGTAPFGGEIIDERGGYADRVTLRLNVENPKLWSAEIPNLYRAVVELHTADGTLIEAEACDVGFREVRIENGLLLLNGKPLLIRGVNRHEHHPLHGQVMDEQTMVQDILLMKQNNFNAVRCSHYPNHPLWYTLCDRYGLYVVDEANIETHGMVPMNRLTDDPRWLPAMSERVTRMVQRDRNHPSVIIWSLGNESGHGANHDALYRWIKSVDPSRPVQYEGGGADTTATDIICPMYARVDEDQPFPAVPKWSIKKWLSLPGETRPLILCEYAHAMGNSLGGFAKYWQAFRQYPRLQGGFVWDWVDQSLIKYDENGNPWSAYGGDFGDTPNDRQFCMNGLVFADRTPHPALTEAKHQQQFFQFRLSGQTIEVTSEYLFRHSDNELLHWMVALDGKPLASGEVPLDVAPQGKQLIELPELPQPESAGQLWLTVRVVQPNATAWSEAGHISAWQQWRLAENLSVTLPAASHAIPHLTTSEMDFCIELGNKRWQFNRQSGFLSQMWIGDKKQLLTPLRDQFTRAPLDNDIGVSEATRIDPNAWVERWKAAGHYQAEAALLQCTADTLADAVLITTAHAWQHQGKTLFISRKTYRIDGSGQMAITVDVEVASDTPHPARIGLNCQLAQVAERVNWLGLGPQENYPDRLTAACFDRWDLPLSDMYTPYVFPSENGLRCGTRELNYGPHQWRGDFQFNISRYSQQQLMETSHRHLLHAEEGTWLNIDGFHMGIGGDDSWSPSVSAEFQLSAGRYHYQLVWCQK
In turn, B1 showed a TRF signal of 476000.

Consider B2, for which the TRF signal was 529000.

The molecule B3 came in with a TRF signal of 531000.

For the molecule B4, the TRF signal came to 258000.

The molecule B5 returned a TRF signal of 501000.

Molecule B6 came in with a TRF signal of 312000.

In the case of B7, the TRF signal amounted to 523000.

In turn, B8 yielded a TRF signal of 289000.

On to B9, for which the TRF signal was determined as 246000.

Take B10: the TRF signal amounted to 518000.

Take B11: the TRF signal was 62000.

A further experiment concerns the target trypsin. Briefly: monoclonal phage ELISA.
As to B12, the ELISA signal is 102000.

As for B13, the ELISA signal amounted to 27600.

B14 registered an ELISA signal of 121000.

With B15, the ELISA signal is 82500.

Consider B16, for which the ELISA signal came out at 72800.

In the case of B17, the ELISA signal came to 68000.

For the molecule B18, the ELISA signal was found to be 70300.

Consider B19, for which the ELISA signal turned out to be 9820.

B20: the ELISA signal worked out at 128000.

Consider B21, for which the ELISA signal turned out to be 119000.
